These are literature values, as cited in paper PMC4435181.

This data set concerns the target HER2 ECD (Homo sapiens) (UniProt P04626). Nature of the data set: ELISA.

The Kd is the equilibrium constant for the complex coming apart. Turning to trastuzumab, the Kd was 0.1 nM.
